Assay results: patent publication US20240309109A1 (MorphoSys, published 2024)
Positions count from the first letter of the chain named.

B1: MOR06204 Fab (Fab, V domains shown)
VH: QVQLVESGGGLVQPGGSLRLSCAASGFTFSSYAMNWVRQAPGKGLEWVSHIRKKNTSYTTEYAASVKGRFTISRDNSKNTLYLQMNSLRAEDTAVYYCAREDGSYMTDYFAYWGQGTLVTVSS
VL: DIELTQPPSVSVAPGQTARISCSGDNIGHYYVSWYQQKPGQAPVLVIYSDSNRPSGIPERFSGSNSGNTATLTISGTQAEDEADYYCQSYNGTYVFGGGTKLTVL
notes: Fab format
B2: MOR06214 Fab (Fab, V domains shown)
VH: QVQLVESGGGLVQPGGSLRLSCAASGFTFSSYAMNWVRQAPGKGLEWVSNIQRVGSTYYADSVKGRFTISRDNSKNTLYLQMNSLRAEDTAVYYCAREDGSYMTDYFAYWGQGTLVTVSS
VL: B1 VL
notes: Fab format
B3: MOR06200 Fab (Fab, V domains shown)
VH: QVQLVESGGGLVQPGGSLRLSCAASGFTFSSYYMNWVRQAPGKGLEWVSAISNNGNVTYYADSVKGRFTISRDNSKNTLYLQMNSLRAEDTAVYYCARDLPLVYTGFAYWGQGTLVTVSS
VL: DIELTQPPSVSVAPGQTARISCSGDNLRHYYVYWYQQKPGQAPVLVIYGDSKRPSGIPERFSGSNSGNTATLTISGTQAEDEADYYCQTYTGGASLVFGGGTKLTVL
notes: Fab format
B4: MOR06185 Fab (Fab, V domains shown)
VH: B3 VH with N53M, N56D, V57Y, T58I, Y59S
VL: B3 VL
notes: Fab format
B5: MOR06195 Fab (Fab, V domains shown)
VH: B3 VH with N53G, N56G, V57H
VL: B3 VL
notes: Fab format
B6: MOR06190 Fab (Fab, V domains shown)
VH: B3 VH with A50Y, S52N, N53P, N56M, V57M, Y59N
VL: B3 VL
notes: Fab format
B7: MOR06186 Fab (Fab, V domains shown)
VH: B3 VH with S52N, N53L, N54S, N56S, V57A, T58K
VL: B3 VL
notes: Fab format
B8: MOR06189 Fab (Fab, V domains shown)
VH: B3 VH with S52N, N53M, N54I, Y59N
VL: B3 VL
notes: Fab format
B9: MOR06197 Fab (Fab, V domains shown)
VH: B3 VH with N53M, N54D, N56V, V57Y, T58K
VL: B3 VL
notes: Fab format
B10: MOR06201 Fab (Fab, V domains shown)
VH: B3 VH with N53M, N54H, N56D, V57T
VL: B3 VL
notes: Fab format
B11: MOR06184 Fab (Fab, V domains shown)
VH: B3 VH with N53H, N54D, T58K
VL: B3 VL
notes: Fab format
B12: MOR06183 Fab (Fab, V domains shown)
VH: B3 VH with A50G, S52N, N53M, N54E, G55S, N56T, V57R, T58I
VL: B3 VL
notes: Fab format
B13: MOR06187 Fab (Fab, V domains shown)
VH: B3 VH with N53S, N56D, V57I
VL: B3 VL
notes: Fab format
B14: MOR06192 Fab (Fab, V domains shown)
VH: B3 VH with A50V, N53P, N54G, N56E, V57A, T58K, Y59S
VL: B3 VL
notes: Fab format
B15: MOR06188 Fab (Fab, V domains shown)
VH: B3 VH with N53T, N56W, V57Q
VL: B3 VL
notes: Fab format
B16: MOR06204 IgG (antibody, V domains shown)
VH: B1 VH
VL: DIELTQPPSVSVAPGQTARISCSGDNIGHYYVSWYQQKPGQAPVLVIYSDSNRPSGIPERFSGSNSGNTATLTISGTQAEDEADYYCQSYNGTYVFGGGTKLTVLG
notes: copies: 2 + 2
B17: MOR06195 IgG (antibody, V domains shown)
VH: B3 VH with N53G, N56G, V57H
VL: DIELTQPPSVSVAPGQTARISCSGDNLRHYYVYWYQQKPGQAPVLVIYGDSKRPSGIPERFSGSNSGNTATLTISGTQAEDEADYYCQTYTGGASLVFGGGTKLTVLG
notes: copies: 2 + 2
B18: MOR06197 IgG (antibody, V domains shown)
VH: B3 VH with N53M, N54D, N56V, V57Y, T58K
VL: B17 VL
notes: copies: 2 + 2
B19: MOR06192 IgG (antibody, V domains shown)
VH: B3 VH with A50V, N53P, N54G, N56E, V57A, T58K, Y59S
VL: B17 VL
notes: copies: 2 + 2
B20: MOR06201 IgG (antibody, V domains shown)
VH: B3 VH with N53M, N54H, N56D, V57T
VL: B17 VL
notes: copies: 2 + 2
B21: MOR06214 IgG (antibody, V domains shown)
VH: B2 VH
VL: B16 VL
notes: copies: 2 + 2
B22: MOR03086 Fab (Fab, V domains shown)
VH: QVQLVESGGGLVQPGGSLRLSCAASGFTFTSYYMHWVRQAPGKGLEWVSYIDSSGSSTYYADSVKGRFTISRDNSKNTLYLQMNSLRAEDTAVYYCARQLMPFGGYFDVWGQGTLVTVSS
VL: DIQMTQSPSSLSASVGDRVTITCRASQNISQWLNWYQQKPGKAPKLLIYGASNLQSGVPSRFSGSGSGTDFTLTISSLQPEDFATYYCQQYYDLPNTFGQGTKVEIKR
notes: Fab format
B23: MOR03089 Fab (Fab, V domains shown)
VH: QVQLKESGPALVKPTQTLTLTCTFSGFSLSSDGMGVGWIRQPPGKALEWLALIDWDDDKRYSTSLKTRLTISKDTSKNQVVLTMTNMDPVDTATYYCARFNWFYRLAFVNPDVWGQGTLVTVSS
VL: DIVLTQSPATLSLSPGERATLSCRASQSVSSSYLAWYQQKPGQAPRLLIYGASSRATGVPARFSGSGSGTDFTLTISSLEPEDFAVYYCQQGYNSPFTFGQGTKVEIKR
notes: Fab format
B24: MOR03129 Fab (Fab, V domains shown)
VH: QVQLVESGGGLVQPGGSLRLSCAASGFTFSNYSMNWVRQAPGKGLEWVSYIYGGGSYTYYADSVKGRFTISRDNSKNTLYLQMNSLRAEDTAVYYCARQAGMYFDVWGQGTLVTVSS
VL: DIELTQPPSVSVAPGQTARISCSGDNLGSKVVSWYQQKPGQAPVLVIYYDNKRPSGIPERFSGSNSGNTATLTISGTQAEDEADYYCQSYTFESGSVVFGGGTKLTVLG
notes: Fab format
B25: MOR03102 Fab (Fab, V domains shown)
VH: QVQLQESGPGLVKPGETLSLTCTVSGGSISGNYWSWIRQAPGKGLEWIGDYHGSTYYNPSLKGRVTISVDTSKNQFSLKLSSVTAEDTAVYYCAREQYHWGLAWTGFDNWGQGTLVTVSS
VL: DIELTQPPSVSVAPGQTARISCSGDNLGHYYVSWYQQKPGQAPVLVIYDDSDRPSGIPERFSGSNSGNTATLTISGTQAEDEADYYCGAYAMHMTVFGGGTKLTVLG
notes: Fab format
B26: MOR03131 Fab (Fab, V domains shown)
VH: QVQLKESGPALVKPTQTLTLTCTFSGFSLSNSGVGVGWIRQPPGKALEWLADIYSDTTKRYSTSLKTRLTISKDTSKNQVVLTMTNMDPVDTATYYCARYGEAYFDYWGQGTLVTVSS
VL: DIELTQPPSVSVAPGQTARISCSGDNLGNFYVHWYQQKPGQAPVLVIYEDSNRPSGIPERFSGSNSGNTATLTISGTQAEDEADYYCSSWDMYRTIFVFGGGTKLTVLG
notes: Fab format
B27: MOR03085 Fab (Fab, V domains shown)
VH: QVQLVQSGAEVKKPGASVKVSCKASGYTFTGYYINWVRQAPGQGLEWMGWIFPNGGSTGYAQKFQGRVTMTRDTSISTAYMELSSLRSEDTAVYYCARGNIFIFDYWGQGTLVTVSS
VL: DIVLTQPPSVSGAPGQRVTISCSGSSSNIGNNYVSWYQQLPGTAPKLLIYGDDQRPSGVPDRFSGSKSGTSASLAITGLQSEDEADYYCQSYGTFSSFVFGGGTKLTVLG
notes: Fab format
B28: MOR03101 Fab (Fab, V domains shown)
VH: QVQLKESGPALVKPTQTLTLTCTFSGFSLSTSRVGVSWIRQPPGKALEWLAHIDWNDDKYYSTSLKTRLTISKDTSKNQVVLTMTNMDPVDTATYYCAREDRLLGGYGYDVWGQGTLVTVSS
VL: DIELTQPPSVSVAPGQTARISCSGDSLGSYYVHWYQQKPGQAPVLVIGDDTKRPSGIPERFSGSNSGNTATLTISGTQAEDEADYYCGSRTGYNNSFVFGGGTKLTVLG
notes: Fab format

These binders were tested against CD38 (antigen of the Bioveris affinity determination) (Homo sapiens (Human), UniProt P28907 45-300, limits assumed) (assay: Bioveris, Fab format).

Row | Kd [nM] | Binder
1 | 0.0585 | B1
2 | 0.0936 | B2
3 | 0.0599 | B3
4 | 0.0137 | B4
5 | 0.0557 | B5
6 | 0.0488 | B6
7 | 0.00509 | B7
8 | 0.0247 | B8
9 | 0.0127 | B9
10 | 0.0186 | B10
11 | 0.0662 | B11
12 | 0.026 | B12
13 | 0.0454 | B13
14 | 0.0747 | B14
15 | 0.0593 | B15

What follows are binders tested against T1, human CD38 Fc-fusion aa 45-300 (human, UniProt P28907 45-300) (assay: SPR (Biacore), Fab format).
T1 construct: Expressed in HEK293 behind a human Vkappa leader, which is left out here; also called CD38-Fc fusion protein; CD38 Fc-Fusion protein

Row | Kd [nM] | Binder
16 | 22.7 | B1
17 | 5.26 | B2
18 | 7.92 | B3
19 | 4.39 | B4
20 | 4.52 | B5
21 | 15.7 | B6
22 | 4.62 | B7
23 | 4.95 | B8
24 | 4.81 | B9
25 | 6.81 | B10
26 | 9.68 | B11
27 | 13.5 | B12
28 | 12.5 | B13
29 | 5.01 | B14
30 | 3.96 | B15

These binders were tested against T2, human CD38 on cells (human, UniProt P28907 1-300) (assay: FACS Scatchard on RPMI8226 cells).
T2 construct: The cell that carried CD38 is named under assay in each row; also called CD38 on Raji, RPMI8226, OPM2, CCRF-CEM, human erythrocytes, CD38 CHO-K1 transfectants

Row | EC50 [nM] | Binder
31 | 6.36 | B1
32 | 5.32 | B2
33 | 5.02 | B3
34 | 7.3 | B4
35 | 5.6 | B5
36 | 11.7 | B6
37 | 6.47 | B7
38 | 9.41 | B8
39 | 6.92 | B9
40 | 9 | B10
41 | 4.01 | B11
42 | 28.1 | B12
43 | 16.9 | B13
44 | 7.07 | B14
45 | 22.7 | B15

These binders were tested against T1, human CD38 Fc-fusion aa 45-300 (assay: ELISA on CD38 Fc-fusion protein, IgG format).

Row | ELISA CD38 Fc-Fusion protein (% Reactivity of MOR03087) [%] | Binder
46 | 56 | B16
47 | 155 | B17
48 | 138 | B18
49 | 111 | B19
50 | 137 | B20
51 | 109 | B21

What follows are binders tested against T1, human CD38 Fc-fusion aa 45-300 (assay: SPR (Biacore), Fab on immobilized CD38 Fc-fusion).

Row | Kd [nM] | Binder
52 | 30 | B22
53 | 340 | B23
54 | 43 | B24
55 | 64 | B25
56 | 451 | B26
57 | 122 | B27
58 | 314 | B28
